± gives the standard deviation of the averaged measurements.
B1: library; a variant is named by its letters at N, in order (parent)
chain: GCUGUCACCGAGAAACUGUGAAGUAUAUCUUAAACCUGGGCACUUAAAAGAUAUAUGGAGUUAGUAGUGCAACCUGCUCGGUCUGAUGAGUCCNNNNNNGGACGAAACAGC

How the values were obtained:
cyclic di-GMP [1] = variants of: B1; assay: FACS-Seq fitted mean relative fluorescence mCherry/BFP without ligand (log10 relative fluorescence); HEK293T; ligand: cyclic di-GMP (c-di-GMP-II aptamer); higher = higher reporter protein expression; settings: ligand present: no
How it was run: (§1)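 HEK293T libraries were lentivirally transduced with an mCherry reporter carrying the ribozyme switch and an EF1α-BFP marker, enriched, and incubated for 48 h with or without ligand before sorting into 6 bins by mCherry/BFP. Genomic DNA from each bin was PCR-amplified, barcoded and sequenced on MiSeq. Fluorescence is the fitted normal mean of the bin counts. The fit used log10(mCherry/BFP), and means were scaled to five spiked-in control ribozymes.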

cyclic di-GMP [2] = variants of: B1; assay: normalized RNA/DNA level without ligand (relative to sTRSVctl = 100) (log10 (% of sTRSVctl)); HEK293T; ligand: cyclic di-GMP (c-di-GMP-II aptamer); higher = less ribozyme self-cleavage, higher mRNA level; settings: reporter: mCherry (pCS4076), ligand present: no
How it was run: (§2)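 RNA level was computed as RNA reads over DNA reads divided by a spiked-in non-cleaving sequence or by the top sequences, then scaled and log-transformed. Scaling was ×100 with log10, the top group was 25 sequences, and the threshold was ≥100 DNA reads. The reads came from HEK293T cells transfected at 4 µg per 6-well well with ribozyme switch library plasmids (mCherry, or eGFP in some ligand experiments). Total RNA was extracted with EDTA 72 h after transfection, with any ligand added 1 h before it.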

cyclic di-GMP [3] = variants of: B1; assay: FACS-Seq fitted mean relative fluorescence mCherry/BFP with ligand (log10 relative fluorescence); HEK293T; ligand: cyclic di-GMP (c-di-GMP-II aptamer); ligand concentration (+) FACS-Seq: 1 mM; higher = higher reporter protein expression; settings: ligand present: yes
How it was run: as §1

cyclic di-GMP [4] = variants of: B1; assay: normalized RNA/DNA level with ligand (relative to sTRSVctl = 100) (log10 (% of sTRSVctl)); HEK293T; ligand: cyclic di-GMP (c-di-GMP-II aptamer); ligand concentration (+) RNA-Seq: 1 mM; higher = less ribozyme self-cleavage, higher mRNA level; settings: reporter: mCherry (pCS4076), ligand present: yes
How it was run: as §2

| Variant | FACS-Seq fitted mean (log10) (cyclic di-GMP [1]) | normalized RNA/DNA level without ligand (log10) (cyclic di-GMP [2]) | FACS-Seq fitted mean (log10) (cyclic di-GMP [3]) | normalized RNA/DNA level with ligand (log10) (cyclic di-GMP [4]) |
| --- | --- | --- | --- | --- |
| CUAGAC | -0.239 ± 0.047 | 1.67 ± 0.053 | -0.0103 ± 0.011 | 1.81 ± 0.093 |
| CGUGGA | -0.426 ± 0.029 | 1.41 ± 0.1 | -0.0424 ± 0.071 | 1.62 ± 0.035 |
| CGUAAA | -0.605 ± 0.042 | 1.23 ± 0.081 | -0.386 ± 0.039 | 1.34 ± 0.11 |
| CGUAAU | -0.374 ± 0.0044 | 1.36 ± 0.17 | -0.0343 ± 0.11 | 1.53 ± 0.093 |
| GUCAGG | -1.25 ± 0.11 | 1.74 ± 0.063 | -0.78 ± 0.093 | 1.81 ± 0.087 |
| CUAACU | -0.381 ± 0.006 | 1.59 ± 0.025 | -0.0873 ± 0.0047 | 1.74 ± 0.1 |
| UUCGGA | -0.328 ± 0.044 | 1.58 ± 0.093 | 0.0771 ± 0.088 | 1.8 ± 0.081 |
| UUCGGC | -0.553 ± 0.015 | 1.81 ± 0.029 | -0.447 ± 0.062 | 1.9 ± 0.086 |
| UUAUGG | -0.0165 ± 0.12 | 1.74 ± 0.053 | 0.213 ± 0.035 | 1.85 ± 0.13 |
| UUAUGA | -0.781 ± 0.045 | 1.63 ± 0.025 | -0.563 ± 0.026 | 1.81 ± 0.12 |
| AUAUAG | -0.0556 ± 0.15 | 1.61 ± 0.046 | 0.255 ± 0.02 | 1.74 ± 0.074 |
| GUAAUG | -0.57 ± 0.093 | 1.63 ± 0.061 | -0.481 ± 0.029 | 1.75 ± 0.066 |
| GUCGCG | -0.376 ± 0.016 | 1.76 ± 0.018 | -0.0454 ± 0.13 | 1.82 ± 0.071 |
| GUCGCU | -0.798 ± 0.048 | 1.683 ± 0.0047 | -0.654 ± 0.068 | 1.87 ± 0.065 |
| CUCCGU | 0.15 ± 0.23 | 1.8 ± 0.02 | 0.423 ± 0.0021 | 1.88 ± 0.093 |
| CGUCUA | -0.152 ± 0.067 | 1.26 ± 0.082 | 0.127 ± 0.011 | 1.45 ± 0.1 |
| CGUCUU | -0.365 ± 0.028 | 1.49 ± 0.033 | -0.103 ± 0.064 | 1.66 ± 0.12 |
| CGUCUC | 0.2 ± 0.16 | 1.766 ± 0.015 | 0.3267 ± 0.0019 | 1.87 ± 0.11 |

| Variant | FACS-Seq fitted mean (log10) (cyclic di-GMP [1]) | normalized RNA/DNA level without ligand (log10) (cyclic di-GMP [2]) | FACS-Seq fitted mean (log10) (cyclic di-GMP [3]) | normalized RNA/DNA level with ligand (log10) (cyclic di-GMP [4]) |
| --- | --- | --- | --- | --- |
| AUACGA | -0.518 ± 0.09 | 1.46 ± 0.08 | -0.228 ± 0.13 | 1.67 ± 0.14 |
| AGUGGG | -0.534 ± 0.12 | 1.69 ± 0.069 | -0.365 ± 0.059 | 1.8 ± 0.062 |
| GUCCUG | -0.102 ± 0.019 | 1.68 ± 0.022 | 0.19 ± 0.09 | 1.83 ± 0.14 |
| AUAUCC | -0.758 ± 0.046 | 1.73 ± 0.048 | -0.565 ± 0.012 | 1.9 ± 0.11 |
| CGUUCA | -0.111 ± 0.098 | 1.39 ± 0.12 | 0.115 ± 0.005 | 1.59 ± 0.12 |
| CGUUCU | -0.248 ± 0.08 | 1.51 ± 0.084 | 0.0758 ± 0.01 | 1.68 ± 0.068 |
| CGUUCC | -0.821 ± 0.086 | 1.735 ± 0.0027 | -0.407 ± 0.1 | 1.87 ± 0.13 |
| GUCGGA | -0.0744 ± 0.052 | 1.51 ± 0.073 | 0.242 ± 0.025 | 1.7 ± 0.071 |
| UGUAGU | 0.04 ± 0.16 | 1.66 ± 0.051 | 0.343 ± 0.011 | 1.86 ± 0.12 |
| AGUGAA | -0.389 ± 0.095 | 1.36 ± 0.097 | 0.0166 ± 0.093 | 1.54 ± 0.096 |
| AGUGAC | -0.339 ± 0.017 | 1.63 ± 0.038 | -0.00165 ± 0.05 | 1.77 ± 0.13 |
| AGUUUA | -0.489 ± 0.04 | 1.53 ± 0.068 | -0.25 ± 0.013 | 1.72 ± 0.12 |
| GUAGCA | 0.112 ± 0.04 | 1.83 ± 0.043 | 0.201 ± 0.053 | 1.87 ± 0.13 |
| AUAGGU | -0.384 ± 0.071 | 1.51 ± 0.061 | -0.171 ± 0.092 | 1.69 ± 0.14 |
| AUAGGG | -0.534 ± 0.02 | 1.41 ± 0.12 | -0.187 ± 0.073 | 1.59 ± 0.15 |
| AGGUGA | -0.464 ± 0.029 | 1.52 ± 0.1 | -0.245 ± 0.0095 | 1.6 ± 0.083 |
| UUAAGA | -0.227 ± 0.096 | 1.613 ± 0.01 | 0.2 ± 0.0086 | 1.76 ± 0.12 |
| GUAUCA | -0.201 ± 0.17 | 1.62 ± 0.02 | 0.0998 ± 0.097 | 1.78 ± 0.094 |
